“And” between values parts separate entries of the source, which are not always exact repeats. Equal values may be shown once.
T1: Macaca fascicularis CD40 (Macaca fascicularis (cynomolgus monkey), UniProt P25942 21-277 (human entry))
T1 chain: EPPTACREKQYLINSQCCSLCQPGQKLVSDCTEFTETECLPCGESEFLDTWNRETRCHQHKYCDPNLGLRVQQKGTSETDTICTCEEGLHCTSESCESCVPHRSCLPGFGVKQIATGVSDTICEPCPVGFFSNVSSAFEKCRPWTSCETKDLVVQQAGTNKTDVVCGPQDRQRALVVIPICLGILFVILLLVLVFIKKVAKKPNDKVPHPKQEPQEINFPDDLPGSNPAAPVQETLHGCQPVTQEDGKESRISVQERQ


Tests used:
Assay in all cases: cell-based or functional assay
human CD40 [1] = molecular target: T2, human CD40 (human, UniProt P25942 21-277)
Macaca fascicularis CD40 = molecular target: T1, Macaca fascicularis CD40
human CD40 [2] = molecular target: T2, human CD40; remark: listed apart in the source

Row | Binder | CHO-hCD40L-driven DC Activation IL-12 EC50 (human CD40 [1]) | hIZCD40L-driven Human B Cell Proliferation EC50 (human CD40 [1]) [nM] | hIZCD40L-driven Cyno B Cell Proliferation EC50 (Macaca fascicularis CD40) [nM] | ICAM-1 Cell Assay EC50 (nM), 10% bovine serum (human CD40 [2]) [nM] | ICAM-1 Cell Assay EC50 (nM), 10% human serum (human CD40 [2]) [nM]
1 | BMS3h-233 (other) VH: EVQLLESGGGLVQPGGSLRLSCAASGFTFAHYNMRWVRQAPGKGLEWVSTITKTGFRTYYADSVKGRFTISRDNSKNTLYLQMNSLRAEDTAVYYCAKAGQFDFDYWGQGTLVTVSS | 1490 nM and > 2000 nM | 184 | > 7000 | – | –
2 | BMS3h-240 (other) VH: EVQLLESGGGLVQPGGSLRLSCAASGFTFWVYDMRWVRQAPGKGLEWVSTISATGVHTYYADSVKGRFTISRDNSKNTLYLQMNSLRAEDTAVYYCAKYPPAGRFDYWGQGTLVTVSS | – | > 7000 | > 7000 | – | –
3 | BMS3h-257 (other) VH: EVQLLESGGGLVQPGGSLRLSCAASGFTFQNYQMAWVRQAPGKGLEWVSTISGTGKNTYYADSVKGRFTISRDNSKNTLYLQMNSLRAEDTAVYYCAKTPQNYFSVRRFDYWGQGTLVTVSS | 704 nM | 135 | > 7000 | – | –
4 | BMS3h-231 (other) VH: EVQLLESGGGLVQPGGSLRLSCAASGFTFSAYNMWWARQAPGKGLEWVSWINSTGSRTYYADSVKGRFTISRDNSKNTLYLQMNSLRAEDTAVYYCAKNWHRGRFDYWGQGTLVTVSS | – | 328 | > 7000 | – | –
5 | BMS3h-217-2 (other) VL: DIQMTQSPSSLSASVGDRVTITCRASHFIGTLLSWYQQKPRKAPKLLITYGSLLQSGVPSRFSGSGSGTDFTLTISSLHPEDFATYYCGQGVLWPPTFGQGTKVEIKR | 335 nM | 8 | 7 | – | –
6 | BMS3h-217-23 (other) VL: DIQMTQSPSSLSASVGDRVTITCRASHFIGSLLSWYQVKPGKAPKLLITYGSLLQSGVPSRFSGSGSGTDFTLTISSLQPEDFATYYCGQGVLWPATFGQGTTVEIKR | – | 16 | 15 | – | –
7 | BMS3h-217-15 (other) VL: DIQMTQSPSSLYASVGDRVTITCRVSHFIGTLLSWYQQKPGKAPKLLITYGSLLQSGVPSRFSGSGSGTDFTLSISSLQPEDFATYYCGQGVLWPPTFGQGTKVEIKQ | – | 47 | 20 | – | –
8 | BMS3h-217-14 (other) VL: DIQLTQSPSSLSASVGDRVTITCRASHFIGTLLSWYQQKPGKATKLLITYGSLLQSGVPSRFSGSGSGTDFTLTISSLQPEDFATYYCGQGVLWPPTFGQGTKVEIKR | – | 26 | 8 | – | –
9 | BMS3h-217-6 (other) VL: DIQMTQSPSSLSASVGDRVTITCRASHFIGTLLSWYQQKPGKATKLLITYGSLLQSGVPSRFSGSGSGTDFTLTISSLQPEDFATYYCGQGVLWPPTFGQGTKVEIKR | – | 11 | 10 | – | –
10 | BMS3h-217-16 (other) VL: DIQMTQSPSSLSASVGDRVTITCRASHFIGTLLSWYQQKPRKAPKLLITYGSLLQSGVPSRFSGSGSGTDFTLTISSLQPEDFATYYCGQGVLWPPTFGQGTKVEIKR | 1120 nM | 5 | 7 | – | –
11 | BMS3h-217-8 (other) VL: DIQMTQSPSSLSASVGDRVTITCRASHFIGTLLSWYQHKPGKAPKLLITYGSLLQSGVPSRFSGSGSGTDFTLTISSLQPEDFATYYCGQGVLWPATFGQGTKVEIKR | – | 33 | 14 | – | –
12 | BMS3h-287 (other) VH: EVQLLESGGGLVQPGGSLRLSCAASGFTFTNYRMSWVRQAPGKGLEWVSAIDDLGVSTYYADSVKGRFTISRDNSKNTLYLQMNSLRAEDTAVYYCAKWRLKNSQPTDFDYWGQGTLVTVSS | – | 287 | 918 | – | –
13 | BMS3h-275 (other) VH: EVQLLESGGGLVQPGGSLRLSCAASGFTFTRYQMGWVRQAPGKGLEWVSVINVWGSSTYYADSVKGRFTISRDNSKNTLYLQMNSLRAEDTAVYYCAKMSGKFAYWGQGTLVTVSS | – | 157 | > 7000 | – | –

Next, values leading:

Row | CHO-hCD40L-driven DC Activation IL-12 EC50 (human CD40 [1]) | hIZCD40L-driven Human B Cell Proliferation EC50 (human CD40 [1]) [nM] | hIZCD40L-driven Cyno B Cell Proliferation EC50 (Macaca fascicularis CD40) [nM] | ICAM-1 Cell Assay EC50 (nM), 10% bovine serum (human CD40 [2]) [nM] | ICAM-1 Cell Assay EC50 (nM), 10% human serum (human CD40 [2]) [nM] | Binder
14 | – | 648 | 838 | – | – | BMS3h-309 (other) VH: EVQLLESGGGLVQPGGSLRLSCAASGFTFSGHDMSWVRQAPGKGLEWVSAISPHGTHTYYADSVKGRFTISRDNSKNTLYLQMNSLRAEDTAVYYCAKGIRGWIGHDTQPFDYWGQGTLVTVSS
15 | – | – | – | 21.7 | 39.2 | DMS0679 DOM7h-11-90-G4S-BMS3h-56-258 (bispecific antibody) DIQMTQSPSSLSASVGDRVTITCRASRPIGTMLSWYQQKPGKAPKLLILAFSRLQSGVPSRFSGSGSGTDFTLTISNLQPEDFATYYCAQAGTHPTTFGQGTKVEIKRGGGGSEVQLLESGGGLVQPGGSLRLSCAASGFTFRDYEMWWVRQAPGKGLERVSAINPQGTRTYYADSVKGRFTISRDNSKNTLYLQMNSLRAEDTAVYYCAKLPFYFHEWGQGTLVTVSS
16 | – | 306 | > 7000 | – | – | BMS3h-296 (other) VH: EVQLLESGGGLVQPGGSLRLSCAASGFTFGAYPMYWVRQAPGKGLEWVSSIHKDGRITYYADSVKGRFTISRDNSKNTLYLQMNSLRAEDTAVYYCAKQGTPVDGFDYWGQGTLVTVSS
17 | – | 1100 | > 7000 | – | – | BMS3h-312 (other) VH: EVQLLESGGGLVQPGGSLRLSCAASGFTFDDEKMLWVRQAPGKGLEWVSSISVSGLHTYYADSVKGRFTISRDNSKNTLYLQMNSLRAEDTAVYYCAKEEAGSWSFDYWGQGTLVTVSS
18 | – | – | – | 39.3 | 74.2 | DMS0680 DOM7h-11-90-(G4S)3-BMS3h-56-258 (bispecific antibody) DIQMTQSPSSLSASVGDRVTITCRASRPIGTMLSWYQQKPGKAPKLLILAFSRLQSGVPSRFSGSGSGTDFTLTISNLQPEDFATYYCAQAGTHPTTFGQGTKVEIKRGGGGSGGGGSGGGGSEVQLLESGGGLVQPGGSLRLSCAASGFTFRDYEMWWVRQAPGKGLERVSAINPQGTRTYYADSVKGRFTISRDNSKNTLYLQMNSLRAEDTAVYYCAKLPFYFHEWGQGTLVTVSS
19 | – | – | – | 21.7 | 20.4 | DMS0677 DOM7h-11-90-TVA-BMS3h-56-258 (bispecific antibody) DIQMTQSPSSLSASVGDRVTITCRASRPIGTMLSWYQQKPGKAPKLLILAFSRLQSGVPSRFSGSGSGTDFTLTISNLQPEDFATYYCAQAGTHPTTFGQGTKVEIKRTVAEVQLLESGGGLVQPGGSLRLSCAASGFTFRDYEMWWVRQAPGKGLERVSAINPQGTRTYYADSVKGRFTISRDNSKNTLYLQMNSLRAEDTAVYYCAKLPFYFHEWGQGTLVTVSS

Source: patent US20200199244A1 (published 2020)
